Article PMC8965487

Each substance was assayed against Cy5-labeled extracellular domain of human Angiotensin-Converting Enzyme 2 (ACE2) (UniProt Q9BYF1). Conditions: parent: est. 0; read off a plot.

“SARS-CoV-2 wild-type Spike S1 L18F; D614G” was tested. Which other: Log2 EC50 (WT/MT) did it give?
Its other: Log2 EC50 (WT/MT) is 0.35.

Which other: Log2 EC50 (WT/MT) does the source give for “SARS-CoV-2 wild-type Spike S1 T20N; D614G” here?
Its other: Log2 EC50 (WT/MT) is 0.2.

With SARS-CoV-2 wild-type Spike S1 N234Q as the substance, how does the other: Log2 EC50 (WT/MT) read?
Its other: Log2 EC50 (WT/MT) is -0.05.

Which other: Log2 EC50 (WT/MT) does the source give for “SARS-CoV-2 wild-type Spike S1 A222V; D614G” here?
The other: Log2 EC50 (WT/MT) was -0.1.

For SARS-CoV-2 wild-type Spike S1+S2 D614G, which other: Log2 EC50 (WT/MT) is on record?
Its other: Log2 EC50 (WT/MT) is 0.45.

For “SARS-CoV-2 wild-type Spike S1 HV69-70 del; N501Y; D614G”, which other: Log2 EC50 (WT/MT) is on record?
Its other: Log2 EC50 (WT/MT) is -0.05.

SARS-CoV-2 wild-type Spike S1 D614G was tested. Which other: Log2 EC50 (WT/MT) did it give?
The other: Log2 EC50 (WT/MT) was -0.05.
